Experimental data from patent US20180086841A1 (Merck Sharp & Dohme, published 2018).

Tests used:
[1] = biological target: T1, Q15A; experiment: flow cytometry on CHO-K1 transfectants;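 further: Anti-hCD27 antibodies tested on transiently transfected CHO-K1 cells bearing hCD27 alanine mutants, 30 min at 4 °C primary incubation, FITC readout excluding debris, dead cells and doublets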
T1 construct: also called hCD27 Q15A
T1 receptor chain: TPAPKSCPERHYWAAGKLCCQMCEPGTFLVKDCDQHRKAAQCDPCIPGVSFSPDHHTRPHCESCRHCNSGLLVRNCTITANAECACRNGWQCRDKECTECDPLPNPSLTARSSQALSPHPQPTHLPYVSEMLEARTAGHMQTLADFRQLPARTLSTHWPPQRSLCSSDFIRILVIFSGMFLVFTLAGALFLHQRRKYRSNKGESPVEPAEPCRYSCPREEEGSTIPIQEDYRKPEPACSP
Description: (§1) The hCD27 variants that were tested are listed. Amino acids correspond to the UniProt P26842-1 sequence. Amino acids 1-20 constitute the signal peptide. Binding is expressed as the geometric mean of the FITC signal, relative to antibody binding to hCD27, which was set at 100%.
(§2) The ability of several anti-hCD27 antibodies to bind to a series of hCD27 alanine mutants was determined using CHO-K1 cells, transiently transfected pCI-neo empty vector, pCI-neo.hCD27 and several pCI-neo.CD27Ala mutant constructs.
(§3) Detached cells were transferred to 96 wells round-bottomed well plates at approximately 1.2×10⁵ cells/well. After spinning down the cells, discarding the supernatants and re-suspending the cells in the residual volume, the primary antibodies were added and incubated for 30 minutes at 4° C. Cells were washed three times with DPBS/BSA 1%, followed by centrifugation, discarding of the supernatants and re-suspension in the residual volume. […] After washing once, antibody binding was detected using the HTS plate reader (FACS Canto II) and FlowJo software for data analysis. Debris, dead cells and doublets were excluded from the analysis. Binding was expressed as the geometric mean of the FITC signal, relative to antibody binding to hCD27, which was set at 100%.

[2] = biological target: T2, D32A; experiment: flow cytometry on CHO-K1 transfectants;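 further: Anti-hCD27 antibodies tested on transiently transfected CHO-K1 cells bearing hCD27 alanine mutants, 30 min at 4 °C primary incubation, FITC readout excluding debris, dead cells and doublets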
T2 construct: also called hCD27 D32A
T2 receptor chain: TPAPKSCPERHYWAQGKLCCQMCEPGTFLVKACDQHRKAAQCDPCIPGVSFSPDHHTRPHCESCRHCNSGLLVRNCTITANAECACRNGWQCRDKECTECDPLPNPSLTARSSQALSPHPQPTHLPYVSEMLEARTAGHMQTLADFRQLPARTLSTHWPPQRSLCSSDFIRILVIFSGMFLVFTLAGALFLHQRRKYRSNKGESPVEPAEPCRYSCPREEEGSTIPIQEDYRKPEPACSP
Description: as §1, §2, §3

[3] = biological target: T3, H36A; experiment: flow cytometry on CHO-K1 transfectants;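 further: Anti-hCD27 antibodies tested on transiently transfected CHO-K1 cells bearing hCD27 alanine mutants, 30 min at 4 °C primary incubation, FITC readout excluding debris, dead cells and doublets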
T3 construct: also called hCD27 H36A
T3 receptor chain: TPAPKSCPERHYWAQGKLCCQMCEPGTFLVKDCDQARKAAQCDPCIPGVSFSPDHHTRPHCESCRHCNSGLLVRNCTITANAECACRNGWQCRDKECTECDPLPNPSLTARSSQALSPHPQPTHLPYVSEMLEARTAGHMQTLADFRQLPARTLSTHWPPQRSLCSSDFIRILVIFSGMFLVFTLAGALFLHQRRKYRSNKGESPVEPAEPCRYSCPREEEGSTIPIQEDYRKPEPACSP
Description: as §1, §2, §3

[4] = biological target: T4, W90A; experiment: flow cytometry on CHO-K1 transfectants;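 further: Anti-hCD27 antibodies tested on transiently transfected CHO-K1 cells bearing hCD27 alanine mutants, 30 min at 4 °C primary incubation, FITC readout excluding debris, dead cells and doublets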
T4 construct: also called hCD27 W90A
T4 receptor chain: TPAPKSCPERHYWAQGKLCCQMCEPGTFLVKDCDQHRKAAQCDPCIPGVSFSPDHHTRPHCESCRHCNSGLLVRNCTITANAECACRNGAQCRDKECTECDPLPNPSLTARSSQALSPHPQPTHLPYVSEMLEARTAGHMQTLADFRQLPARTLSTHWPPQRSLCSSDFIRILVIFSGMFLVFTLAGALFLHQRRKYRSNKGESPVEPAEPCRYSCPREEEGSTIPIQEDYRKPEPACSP
Description: as §1, §2, §3

[5] = biological target: T5, P8A; experiment: flow cytometry on CHO-K1 transfectants
T5 construct: also called hCD27 P8A
T5 receptor chain: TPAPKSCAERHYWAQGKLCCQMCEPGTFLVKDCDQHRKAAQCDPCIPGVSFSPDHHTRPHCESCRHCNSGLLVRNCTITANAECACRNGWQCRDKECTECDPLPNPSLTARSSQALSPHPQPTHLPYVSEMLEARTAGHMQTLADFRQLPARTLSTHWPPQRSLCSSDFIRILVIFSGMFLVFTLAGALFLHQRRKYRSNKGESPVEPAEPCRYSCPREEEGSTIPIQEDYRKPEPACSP
Description: as §1, §2, §3

[6] = biological target: T6, human CD27 (A59T) (human, UniProt P26842 21-260); experiment: cell ELISA on CHO-K1 transfectants (selection of the clone)
T6 construct: also called hCD27 (A59T); human CD27 variant p.Ala59Thr
Description: (§4) On day eight, supernatants were screened by cell-ELISA for reactivity to hCD27 as described above. In addition, the hCD27-reactive supernatants were tested for binding to Macaca Mulatta CD27 (mmCD27) expressed on CHO-K1 cells. […] In the cell-ELISA, all incubation steps were followed by a wash step with PBST (PBS with 0.01% Tween 20). Parental CHO-K1, CHO-K1.hCD27, or CHO-K1.mmCD27 cells were seeded (40,000 cells/well) in tissue culture plates and incubated overnight at 37° C. The next day, culture medium was removed and cells were incubated for one hour with (dilutions of) B-cell supernatants at 37° C. […] Subsequently, cells were washed 6 times with PBST and anti-hCD27 immunoreactivity was visualized with 100 μl TMB Stabilized Chromagen (Invitrogen, cat. no. SB02). Reactions were stopped with 100 μl 0.5 M H₂SO₄ and absorbances were read at 460 and 620 nm.
(§5) Hybridoma supernatants were tested in Cell-ELISA experiments for binding to CHO-K1.mmCD27 or CHO-K1 cells expressing hCD27 (A59T), as described above. […] A serial dilution of the supernatants was added.

[7] = biological target: T7, Macaca mulatta CD27 (mmCD27) (Macaca mulatta (rhesus) / Macaca …, UniProt P26842 21-260 (human entry)); experiment: as above
T7 construct: also called Rhesus CD27; rhesus monkey CD27
T7 chain: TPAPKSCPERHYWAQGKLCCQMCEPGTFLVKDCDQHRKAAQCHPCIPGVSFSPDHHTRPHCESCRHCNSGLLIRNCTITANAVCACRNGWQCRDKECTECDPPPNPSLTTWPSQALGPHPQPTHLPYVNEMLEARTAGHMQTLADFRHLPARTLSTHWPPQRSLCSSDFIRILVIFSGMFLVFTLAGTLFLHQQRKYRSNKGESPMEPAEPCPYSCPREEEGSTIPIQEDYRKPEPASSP
Description: as §4, §5

[8] = biological target: T8, human CD27 (human, UniProt P26842 21-260); experiment: flow cytometry MFI, CD8+ T cells of human PBMC, N=2 donors
T8 construct: also called hCD27; HsCD27
Description: Labeled cells were washed by re-suspending them in 150 ul of staining buffer (SB) followed by centrifugation at 300 g for 5 minutes. Cells were then resuspended in 100 ul of SB containing primary anti-CD27 antibodies at various concentrations, incubated in the dark at 4° C. for 30 minutes, followed by washing and centrifugation steps as previously described. […] Cells were incubated for 30 minutes at 4° C. in the dark, followed by washing and centrifugation steps. Next, cells were stained with a cocktail of phenotypic antibodies for surface markers (CD3, CD4, CD8, CD11b) and incubated for 30 minutes at 4° C. in the dark, followed by washing and centrifugation steps. […] Samples were acquired in a LSR-Fortessa flow cytometer (BD Biosciences) using the high throughput sampler and data analyzed by FlowJo software (Tree Star Inc).

[9] = biological target: T3, H36A; experiment: flow cytometry on CHO-K1 transfectants, right sub-column, cell hatched (loss of binding)
Description: as §1, §2, §3

[10] = biological target: T9, R37A; experiment: as above
T9 construct: also called hCD27 R37A
T9 receptor chain: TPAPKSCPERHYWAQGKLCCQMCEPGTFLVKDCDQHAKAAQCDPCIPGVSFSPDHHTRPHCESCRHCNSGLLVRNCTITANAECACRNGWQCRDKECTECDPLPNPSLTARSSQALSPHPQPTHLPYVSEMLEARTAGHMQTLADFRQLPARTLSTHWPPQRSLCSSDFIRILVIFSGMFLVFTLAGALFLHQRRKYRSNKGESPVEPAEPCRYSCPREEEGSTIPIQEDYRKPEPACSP
Description: as §1, §2, §3

[11] = biological target: T10, K38A; experiment: as above
T10 construct: also called hCD27 K38A
T10 receptor chain: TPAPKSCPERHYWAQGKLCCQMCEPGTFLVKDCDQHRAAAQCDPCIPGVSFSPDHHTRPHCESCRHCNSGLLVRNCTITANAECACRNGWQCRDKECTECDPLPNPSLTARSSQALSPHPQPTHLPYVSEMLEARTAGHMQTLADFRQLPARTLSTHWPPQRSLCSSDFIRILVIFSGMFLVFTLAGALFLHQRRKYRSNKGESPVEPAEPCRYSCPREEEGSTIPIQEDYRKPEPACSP
Description: as §1, §2, §3

[12] = biological target: T5, P8A; experiment: as above
Description: as §1, §2, §3

Binder | binding, WT hCD27 = 100 (GM FITC) [1] [%] | binding, WT hCD27 = 100 (GM FITC) [2] [%] | binding, WT hCD27 = 100 (GM FITC) [3] [%] | binding, WT hCD27 = 100 (GM FITC) [4] [%] | binding, WT hCD27 = 100 (GM FITC) [5] [%] | binding result [6] | binding result [7] | EC50 [8] [nM] | binding, WT hCD27 = 100 (GM FITC) [9] [%] | binding, WT hCD27 = 100 (GM FITC) [10] [%] | binding, WT hCD27 = 100 (GM FITC) [11] [%] | binding, WT hCD27 = 100 (GM FITC) [12] [%]
hCD27.15-6B (antibody, human IgG4 S228P, kappa, V domains shown, also called hCD27.15 (humanized 6B); humanized hCD27.15 (human IgG4, Clone 6B)) VH: QVQLVQSGAEVKKPGASVKVSCKASGFIIKATYMHWVRQAPGQRLEWMGRIDPANGETKYDPKFQVRVTITADTSASTAYMELSSLRSEDTAVYYCARYAWYFDVWGQGTLVTVSS VL: DIQMTQSPSSLSASVGDRVTITCRASENIYSFLAWYQQKPGKAPKLLIYHAKTLAEGVTSRFSGSGSGTDFTLTISSLQPEDSATYYCQHYYGSPLTFGQGTRLEIKR | 98.6 | 50.6 | 122 | 93.8 | 63 |  |  |  |  |  |  | 
hCD27.131A (mouse parental 131A) (antibody, mouse IgG1, V domains shown, Mouse IgG1 antibody; also called mouse hCD27.131A) VH: QIQLVQSGPELKKPGETVKISCKASGYTFTNYGMNWVKQAPGKGLKWMGWINTNTGEPTYAEEFKGRFAFSLETSATTAYLQINNLKNEDTATYFCAREGDAMDYWGQGTSVTVSS VL: QIVLTQSPAIMSASPGEKVTMTCSASSSVSYMHWYQQKSGTSPKRWIYDTSKLASGVPARFSGSGSGTSYSLTISSMEAEDAATYYCQQWNSYPFTFGSGTKLEIK |  |  |  |  |  | binds | binds | 0.0194 | 10.8 | 9.6 | 11.8 | 15.9
